The text below walks through data of publication PMC11670113 (Proceedings of the National Academy of Sciences of the …, 2024).

B1: AP-3 δ subunit (residues 1-617), as in the AP-3 core (domain or fragment, human, UniProt O14617 1-617, looked up)
chain: MALKMVKGSIDRMFDKNLQDLVRGIRNHKEDEAKYISQCIDEIKQELKQDNIAVKANAVCKLTYLQMLGYDISWAAFNIIEVMSASKFTFKRIGYLAASQSFHEGTDVIMLTTNQIRKDLSSPSQYDTGVALTGLSCFVTPDLARDLANDIMTLMSHTKPYIRKKAVLIMYKVFLKYPESLRPAFPRLKEKLEDPDPGVQSAAVNVICELARRNPKNYLSLAPLFFKLMTSSTNNWVLIKIIKLFGALTPLEPRLGKKLIEPLTNLIHSTSAMSLLYECVNTVIAVLISLSSGMPNHSASIQLCVQKLRILIEDSDQNLKYLGLLAMSKILKTHPKSVQSHKDLILQCLDDKDESIRLRALDLLYGMVSKKNLMEIVKKLMTHVDKAEGTTYRDELLTKIIDICSQSNYQYITNFEWYISILVELTRLEGTRHGHLIAAQMLDVAIRVKAIRKFAVSQMSALLDSAHLLASSTQRNGICEVLYAAAWICGEFSEHLQEPHHTLEAMLRPRVTTLPGHIQAVYVQNVVKLYASILQQKEQAGEAEGAQAVTQLMVDRLPQFVQSADLEVQERASCILQLVKHIQKLQAKDVPVAEEVSALFAGELNPVAPKAQKKVPV
B2: full-length, myristoylated Arf1-Q71L (enzyme)
chain: not shown
modifications: myristoylated

The data set “cryo-EM structure” concerns the molecule itself. The data set can be described thus: cryo-EM structure.
The target in data set [1] is B1. Briefly: cryo-EM structure.

Regarding B1, the binding result in “cryo-EM structure” is “binds”.
In the case of B2, the binding result in data set [1] is listed as “binds”.
